Measurements from US12503511 (COMPASS THERAPEUTICS, dated 2025).
Numbering of substitutions follows the chain as printed. Values belong to the binder of their own block, whether it stands above or below them.

Assays:
[1] = biological target: T1, cyno PD-L1 expressed on cells (cynomolgus); assay: cell binding titration, HEK cells expressing cyno PD-L1
T1 construct: whole, on cells; also called cynomolgus PD-L1

[2] = biological target: T1, cyno PD-L1 expressed on cells; assay: cell binding EC50 on HEK-cyno PD-L1; fold improvement, reference taken as parent mAb24
[3] = biological target: T2, murine PD-L1 expressed on cells (murine, UniProt Q9EP73 19-290); assay: cell binding titration, A20 cells expressing murine PD-L1
T2 construct: whole, on cells; also called muPDL1; mouse PD-L1
T2 sequence (Q9EP73 19-290): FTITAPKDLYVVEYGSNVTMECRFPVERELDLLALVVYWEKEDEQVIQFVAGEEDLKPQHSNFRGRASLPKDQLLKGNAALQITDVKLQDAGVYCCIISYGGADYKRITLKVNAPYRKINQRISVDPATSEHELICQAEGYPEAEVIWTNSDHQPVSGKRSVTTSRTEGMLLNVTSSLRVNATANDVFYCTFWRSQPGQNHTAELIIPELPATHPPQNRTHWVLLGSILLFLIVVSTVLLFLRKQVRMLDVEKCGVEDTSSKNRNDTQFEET

[4] = biological target: T3, purified recombinant His tagged human PD-L1 (human, UniProt Q9NZQ7 19-238); assay: SPR (Carterra MX96), antibody on chip, His-tagged human PD-L1 injected
T3 construct: not shown: His tag
T3 sequence (Q9NZQ7 19-238 limits assumed): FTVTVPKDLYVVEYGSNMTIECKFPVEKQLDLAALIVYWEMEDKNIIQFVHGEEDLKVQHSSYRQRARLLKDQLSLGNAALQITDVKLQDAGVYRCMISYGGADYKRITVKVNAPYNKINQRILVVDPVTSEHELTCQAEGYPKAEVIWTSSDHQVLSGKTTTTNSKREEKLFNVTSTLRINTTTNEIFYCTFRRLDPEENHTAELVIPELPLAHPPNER

[5] = biological target: T3, purified recombinant His tagged human …; assay: SPR KD; fold improvement, reference taken as parent mAb24
[6] = biological target: T4, human PD-L1 expressed on cells (human, UniProt Q9NZQ7 19-290); assay: cell binding EC50 on HEK-human PD-L1; fold improvement, reference taken as parent mAb24
T4 construct: also called huPDL1; human PD-L1 on HEK cells
T4 sequence (Q9NZQ7 19-290 limits assumed): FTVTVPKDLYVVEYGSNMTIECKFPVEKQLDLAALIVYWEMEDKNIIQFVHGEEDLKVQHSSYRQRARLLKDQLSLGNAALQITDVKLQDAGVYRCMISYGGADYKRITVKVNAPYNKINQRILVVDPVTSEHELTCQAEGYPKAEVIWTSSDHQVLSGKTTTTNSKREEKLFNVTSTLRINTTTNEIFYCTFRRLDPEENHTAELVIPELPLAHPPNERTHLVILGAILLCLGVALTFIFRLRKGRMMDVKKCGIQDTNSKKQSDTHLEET

[7] = biological target: T4, human PD-L1 expressed on cells; assay: cell binding titration, HEK cells expressing human PD-L1
[8] = biological target: T2, murine PD-L1 expressed on cells; assay: cell binding EC50 on A20-murine PD-L1; fold improvement, reference taken as parent mAb24
[9] = biological target: T1, cyno PD-L1 expressed on cells; assay: cell binding titration (MFI); binder and target taken from the legend paragraph 94 and paragraph 377 (parental clone mAb1, CHO cells expressing cynomolgus PD-L1); the panel itself prints 'mAb28' and 'CHO/CyPD-1'
[10] = biological target: T4, human PD-L1 expressed on cells; assay: cell binding titration (MFI); binder and target taken from the legend paragraph 94 and paragraph 377 (parental clone mAb1, CHO cells expressing human PD-L1); the panel itself prints 'mAb28' and 'CHO/HuPD-1'
[11] = biological target: T5, cyno PD-1 expressed on cells (cynomolgus); assay: cell binding EC50 on CHO-cyno PD-1; fold improvement over parent mAb25
T5 construct: whole, on cells; also called cyPD-1; cynomolgus PD-1

[12] = biological target: T5, cyno PD-1 expressed on cells; assay: cell binding titration, CHO cells expressing cyno PD-1
[13] = biological target: T6, purified recombinant His tagged human PD-1 (human, UniProt Q15116 25-170); assay: SPR (Carterra MX96), antibody on chip, His-tagged human PD-1 injected
T6 construct: not shown: His tag
T6 sequence (Q15116 25-170 limits assumed): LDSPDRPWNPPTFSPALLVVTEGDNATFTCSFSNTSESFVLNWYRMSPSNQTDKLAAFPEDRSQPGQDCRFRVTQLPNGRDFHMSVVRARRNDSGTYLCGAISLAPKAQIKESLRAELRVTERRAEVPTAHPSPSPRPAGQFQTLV

[14] = biological target: T7, murine PD-1 expressed on cells (murine, UniProt Q02242 25-288); assay: cell binding titration, CHO cells expressing murine PD-1
T7 construct: whole, on cells; also called muPD-1; mouse PD-1
T7 sequence (looked up): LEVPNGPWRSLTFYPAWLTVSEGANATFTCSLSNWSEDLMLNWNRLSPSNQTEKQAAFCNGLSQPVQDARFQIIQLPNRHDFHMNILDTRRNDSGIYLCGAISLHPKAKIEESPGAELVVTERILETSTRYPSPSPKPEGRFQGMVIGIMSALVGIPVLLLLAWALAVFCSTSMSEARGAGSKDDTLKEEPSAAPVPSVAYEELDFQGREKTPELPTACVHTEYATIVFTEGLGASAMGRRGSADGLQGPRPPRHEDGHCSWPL

[15] = biological target: T6, purified recombinant His tagged human …; assay: SPR KD; fold improvement over parent mAb25
[16] = biological target: T7, murine PD-1 expressed on cells; assay: cell binding titration (MFI) on CHO cells expressing mouse PD-1, panel titled 'Cell Binding: CHO/MsPD-1'
[17] = biological target: T8, human PD-1 expressed on cells (human, UniProt Q15116 25-288); assay: cell binding EC50 on CHO-human PD-1; fold improvement over parent mAb25
T8 construct: also called huPD-1; CHO cells expressing human PD-1
T8 sequence (Q15116 25-288 limits assumed): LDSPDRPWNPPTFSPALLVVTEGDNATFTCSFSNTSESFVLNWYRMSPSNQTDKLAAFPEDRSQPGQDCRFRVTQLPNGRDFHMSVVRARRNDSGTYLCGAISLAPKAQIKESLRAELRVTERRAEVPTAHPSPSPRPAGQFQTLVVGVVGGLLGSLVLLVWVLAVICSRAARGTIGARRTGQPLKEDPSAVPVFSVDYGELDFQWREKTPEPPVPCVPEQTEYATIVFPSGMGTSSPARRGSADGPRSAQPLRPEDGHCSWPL

[18] = biological target: T8, human PD-1 expressed on cells; assay: cell binding titration (MFI) on CHO cells expressing human PD-1, panel titled 'Cell Binding: CHO/HuPD-1'
[19] = biological target: T5, cyno PD-1 expressed on cells; assay: cell binding titration (MFI) on CHO cells expressing cynomolgus PD-1, panel titled 'Cell Binding: CHO/CyPD-1'
[20] = biological target: T8, human PD-1 expressed on cells; assay: cell binding titration, CHO cells expressing human PD-1

EC50 [1]: 0.08 nM
Fold Improvement [2]: 3.42 fold
binding result [3]: no binding
Kd [4]: 3.7 nM
Fold Improvement [5]: 1.2 fold
B1: mAb8 (antibody, V domains shown)
VH: QVQLVQSGAEVKKPGSSVKVSCKASGGTFSSYAINWVRQAPGQGLEWMGGIIPVFGTATYAQKFQGRVTITADESTSTAYMELSSLRSEDTAVYYCARLKFELKDAFDIWGQGTLVTVSS
VL: not shown

EC50 [1]: 0.09 nM
Fold Improvement [2]: 3.05 fold
binding result [3]: no binding
Kd [4]: 6.3 nM
Fold Improvement [5]: 0.7 fold
Fold Improvement [6]: 3.2 fold
EC50 [7]: 0.04 nM
B2: mAb10 (antibody, V domains shown)
VH: B1 VH with F101N
VL: not shown

EC50 [1]: 0.06 nM
Fold Improvement [8]: 4.67 fold
Fold Improvement [2]: 4.96 fold
EC50 [3]: 0.84 nM
Kd [4]: 527 nM
Fold Improvement [6]: 0.4 fold
EC50 [7]: 0.38 nM
B3: mAb18 (antibody, V domains shown)
VH: B1 VH with V54I, F55L, L99R, F101G
VL: not shown

EC50 [1]: 0.07 nM
Fold Improvement [2]: 4.15 fold
binding result [3]: no binding
Kd [4]: 5.4 nM
Fold Improvement [5]: 0.8 fold
Fold Improvement [6]: 2.5 fold
EC50 [7]: 0.06 nM
B4: mAb9 (antibody, V domains shown)
VH: B1 VH with F101G, I109E
VL: not shown

EC50 [1]: 0.12 nM
Fold Improvement [8]: 1.47 fold
Fold Improvement [2]: 2.31 fold
EC50 [3]: 2.66 nM
Kd [4]: 53.9 nM
Fold Improvement [5]: 0.1 fold
Fold Improvement [6]: 1 fold
EC50 [7]: 0.13 nM
B5: mAb20 (antibody, V domains shown)
VH: B1 VH with V54I, T57K, L99R, F101G
VL: not shown

EC50 (read off the curve) [9]: ~0.04 nM
EC50 [1]: 0.09 nM
Fold Improvement [8]: 5.26 fold
Fold Improvement [2]: 3.21 fold
EC50 [3]: 0.74 nM
Kd [4]: 4.16 nM
Fold Improvement [5]: 1.1 fold
Fold Improvement [6]: 3.3 fold
EC50 [7]: 0.04 nM
EC50 (read off the curve) [10]: ~0.1 nM
B6: mAb1 (antibody, V domains shown)
VH: B1 VH with V54I, F55L, T57A, F101G
VL: not shown
notes: also called parental clone mAb1; anti-PD-L1 antibody mAb1

EC50 [1]: 0.39 nM
Fold Improvement [2]: 0.74 fold
binding result [3]: no binding
Kd [4]: 27.1 nM
Fold Improvement [5]: 0.2 fold
Fold Improvement [6]: 1.5 fold
EC50 [7]: 0.09 nM
B7: mAb5 (antibody, V domains shown)
VH: B1 VH with I34F, N35S, F101G
VL: not shown

EC50 [1]: 0.08 nM
Fold Improvement [8]: 1.96 fold
Fold Improvement [2]: 3.76 fold
EC50 [3]: 2 nM
Kd [4]: 2.2 nM
Fold Improvement [5]: 2 fold
Fold Improvement [6]: 2.2 fold
EC50 [7]: 0.06 nM
B8: mAb2 (antibody, V domains shown)
VH: B1 VH with F101G, L115M
VL: not shown

EC50 [1]: 0.47 nM
Fold Improvement [2]: 0.61 fold
binding result [3]: no binding
Kd [4]: 35.9 nM
Fold Improvement [5]: 0.1 fold
Fold Improvement [6]: 1.1 fold
EC50 [7]: 0.13 nM
B9: mAb6 (antibody, V domains shown)
VH: B1 VH with V54I, T57I, T59N, F101G
VL: not shown

EC50 [1]: 0.32 nM
Fold Improvement [2]: 0.89 fold
binding result [3]: no binding
Kd [4]: 2.5 nM
Fold Improvement [5]: 1.8 fold
Fold Improvement [6]: 0.8 fold
EC50 [7]: 0.18 nM
B10: mAb22 (antibody, V domains shown)
VH: B1 VH with F101G, L115M
VL: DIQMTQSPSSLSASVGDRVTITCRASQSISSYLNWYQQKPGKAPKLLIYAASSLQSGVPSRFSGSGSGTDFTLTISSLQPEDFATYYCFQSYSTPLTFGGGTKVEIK

Fold Improvement [8]: 3.08 fold
EC50 [3]: 1.27 nM
Kd [4]: 0.9 nM
Fold Improvement [5]: 4.8 fold
Fold Improvement [6]: 1.3 fold
EC50 [7]: 0.11 nM
B11: mAb3 (antibody, V domains shown)
VH: B1 VH with F101G, L115M
VL: not shown

Fold improvement over Parent [11]: 5.8 fold
EC50 [12]: 1.48 nM
Kd [13]: 5.6 nM
EC50 [14]: 0.814 nM
Fold improvement over Parent [15]: 43 fold
EC50 (read off the curve) [16]: ~0.3 nM
Fold improvement over Parent [17]: 0.2 fold
EC50 (read off the curve) [18]: ~0.6 nM
EC50 (read off the curve) [19]: ~0.4 nM
EC50 [20]: 3.94 nM
B12: mAb28 (antibody, V domains shown)
VH: EVQLLESGGGLVQPGGSLRLSCAASGFTFSSYAMLWVRQAPGKGLEWVSAISNSGTYTYYADSVKGRFTISRDNSKNTLYLQMNSLRAEDTAVYYCARGLDFIVGYTGNDYWGQGTLVTVSS
VL: not shown
notes: also called parental clone mAb28; anti-PD-1 IgG1 antibody (mAb28)

Fold improvement over Parent [11]: 6.5 fold
EC50 [12]: 1.33 nM
Kd [13]: 7.2 nM
EC50 [14]: 20.5 nM
Fold improvement over Parent [15]: 33 fold
Fold improvement over Parent [17]: 0.2 fold
EC50 [20]: 3.87 nM
B13: mAb34 (antibody, V domains shown)
VH: B12 VH with S31N, L35S, Y106A
VL: not shown

Fold improvement over Parent [11]: 7.9 fold
EC50 [12]: 1.09 nM
Kd [13]: 14 nM
EC50 [14]: 0.942 nM
Fold improvement over Parent [15]: 17 fold
Fold improvement over Parent [17]: 1.2 fold
EC50 [20]: 0.75 nM
B14: mAb37 (antibody, V domains shown)
VH: B12 VH with S30R, L35S, Y106R
VL: not shown
